Target: T1, human FcγRIIB (NM_004001) expressed on cells (human, UniProt P31994 43-310)
T1 construct: Transiently expressed on Expi293F cells; also called Expi293F FcγRIIB; HEK293F cells expressing FcγRIIB
T1 sequence: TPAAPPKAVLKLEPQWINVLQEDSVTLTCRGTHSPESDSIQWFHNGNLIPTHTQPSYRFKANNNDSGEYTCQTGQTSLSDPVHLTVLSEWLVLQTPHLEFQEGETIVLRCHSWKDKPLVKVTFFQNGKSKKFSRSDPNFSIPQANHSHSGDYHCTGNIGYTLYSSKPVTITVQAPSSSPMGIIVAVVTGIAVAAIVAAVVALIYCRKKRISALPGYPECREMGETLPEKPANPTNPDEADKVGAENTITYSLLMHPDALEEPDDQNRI
Test: flow cytometry; Raji cells (express predominantly FcγRIIB)

B1: OX40SF2IgG2sigma_R2BS29_HC-C (bispecific antibody)
heavy: QVQLVQSGAEVKKPGSSVKVSCKASGYTFKDYTMHWVRQAPGQGLEWIGGIYPNNGGSTYNQNFKDRVTLTADKSTSTAYMELSSLRSEDTAVYYCARMGYHGPHLDFDVWGQGTTVTVSSASTKGPSVFPLAPCSRSTSESTAALGCLVKDYFPEPVTVSWNSGALTSGVHTFPAVLQSSGLYSLSSVVTVPSSNFGTQTYTCNVDHKPSNTKVDKTVERKCCVECPPCPAPPAAASSVFLFPPKPKDTLMISRTPEVTCVVVDVSAEDPEVQFNWYVDGVEVHNAKTKPREEQFNSTFRVVSVLTVLHQDWLNGKEYKCKVSNKGLPSSIEKTISKTKGQPREPQVYTLPPSREEMTKNQVSLTCLVKGFYPSDIAVEWESNGQPENNYKTTPPMLDSDGSFFLYSKLTVDKSRWQQGNVFSCSVMHEALHNHYTQKSLSLSPGKGGGGGSGGGGSGGGGSGGGGSLPAPKNLVVSRVTEDSARLSWTAPDAAFDSFPIYYWEYRVGGEAIVLTVPGSERSYDLTGLKPGTEYFVYINGVKGGEESRPLSAIFTT
light: DIQMTQSPSSLSASVGDRVTITCKASQDVGAAVAWYQQKPGKAPKLLIYWASTRHTGVPSRFSGSGSGTDFTLTISSLQPEDFATYYCQQYINYPLTFGGGTKVEIKRTVAAPSVFIFPPSDEQLKSGTASVVCLLNNFYPREAKVQWKVDNALQSGNSQESVTEQDSKDSTYSLSSTLTLSKADYEKHKVYACEVTHQGLSSPVTKSFNRGEC
notes: mAbtyrin: anti-OX40 antibody OX40SF2, effector silent IgG2sigma, with linker and R2BS29 FN3 domain at the C-terminus of the heavy chain; also called mAbtyrin
fold binding signal over OX40SF2IgG2sigma at 10 µg/mL: ≥ 6 fold

— patent US20190062420A1 (Janssen / Centocor, published 2019)
